In patent publication US10919943B2, “Mutant proteins enabling agrochemical control of plant gene expression” (The Regents of the University of California, priority 2016, dated 2021):
Numbering of substitutions follows the chain as printed. Numbers in names are those of the source.

System: HAB1
Test: Yeast two hybrid of pBD-PYR1 site saturation mutants with pACT-HAB1 on 10 μM ABA, β-galactosidase staining
Format: cell-based, Arabidopsis
Design: key: x: Mutations in PYR1 that disrupt ABA-induced binding to PYR1 to HAB1
Details: S. cerevisiae Y190, 10 μM ABA; dead = lack of visible staining in comparison to wild type control
How it was run: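 S. cerevisiae Y190 co-expressing GAL4-DNA-binding-domain–PYR1 mutants and GAL4-activation-domain–HAB1 were spotted on SD (-Leu, -Trp) agar with 10 μM (+)-ABA for 2 days at 30° C. Colonies were chloroform-lysed and stained for β-galactosidase. Mutants lacking visible staining relative to wild type were scored as non-binding.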

B1: N151Q: PYR1 mutant (protein, UniProt O49686 1-191, looked up, variant N151Q)
Abscisic acid receptor PYR1: MPSELTPEERSELKNSIAEFHTYQLDPGSCSSLHAQRIHAPPELVWSIVRRFDKPQTYKHFIKSCSVEQNFEMRVGCTRDVIVISGLPANTSTERLDILDDERRVTGFSIIGGEHRLTNYKSVTTVHRFEKENRIWTVVLESYVVDMPEGQSEDDTRMFADTVVKLNLQKLATVAEAMARNSGDGSGSQVT
B1 was tested, and the “Mutations in PYR1 that disrupt ABA-induced binding to PYR1 to HAB1” value (shortened to “Mutations”) was “x”.

B2: D155M: PYR1 mutant (protein, UniProt O49686 1-191, looked up, variant D155M)
Abscisic acid receptor PYR1: B1 Abscisic acid receptor PYR1 with Q151N, D155M
In the case of B2, the “Mutations” value is reported as “x”.

B3: T156R: PYR1 mutant (protein, UniProt O49686 1-191, looked up, variant T156R)
Abscisic acid receptor PYR1: B1 Abscisic acid receptor PYR1 with Q151N, T156R
With B3 the “Mutations” value was “x”.

B4: T156W: PYR1 mutant (protein, UniProt O49686 1-191, looked up, variant T156W)
Abscisic acid receptor PYR1: B1 Abscisic acid receptor PYR1 with Q151N, T156W
For B4, the “Mutations” value was “x”.

B5: N151E: PYR1 mutant (protein, UniProt O49686 1-191, looked up, variant N151E)
Abscisic acid receptor PYR1: B1 Abscisic acid receptor PYR1 with Q151E
For B5, the “Mutations” value was “x”.

B6: T156N: PYR1 mutant (protein, UniProt O49686 1-191, looked up, variant T156N)
Abscisic acid receptor PYR1: B1 Abscisic acid receptor PYR1 with Q151N, T156N
B6 was tested, and the “Mutations” value was “x”.

B7: F159N: PYR1 mutant (protein, UniProt O49686 1-191, looked up, variant F159N)
Abscisic acid receptor PYR1: B1 Abscisic acid receptor PYR1 with Q151N, F159N
In the case of B7, the “Mutations” value is reported as “x”.

B8: T156D: PYR1 mutant (protein, UniProt O49686 1-191, looked up, variant T156D)
Abscisic acid receptor PYR1: B1 Abscisic acid receptor PYR1 with Q151N, T156D
In the case of B8, the “Mutations” value is reported as “x”.

B9: D155W: PYR1 mutant (protein, UniProt O49686 1-191, looked up, variant D155W)
Abscisic acid receptor PYR1: B1 Abscisic acid receptor PYR1 with Q151N, D155W
For B9, the “Mutations” value was “x”.

B10: D155G: PYR1 mutant (protein, UniProt O49686 1-191, looked up, variant D155G)
Abscisic acid receptor PYR1: B1 Abscisic acid receptor PYR1 with Q151N, D155G
For B10, the “Mutations” value was “x”.

B11: N151V: PYR1 mutant (protein, UniProt O49686 1-191, looked up, variant N151V)
Abscisic acid receptor PYR1: B1 Abscisic acid receptor PYR1 with Q151V
In the case of B11, the “Mutations” value is reported as “x”.

B12: D155C: PYR1 mutant (protein, UniProt O49686 1-191, looked up, variant D155C)
Abscisic acid receptor PYR1: B1 Abscisic acid receptor PYR1 with Q151N, D155C
B12 was tested, and the “Mutations” value was “x”.

B13: D155Y: PYR1 mutant (protein, UniProt O49686 1-191, looked up, variant D155Y)
Abscisic acid receptor PYR1: B1 Abscisic acid receptor PYR1 with Q151N, D155Y
With B13 the “Mutations” value was “x”.

B14: D155F: PYR1 mutant (protein, UniProt O49686 1-191, looked up, variant D155F)
Abscisic acid receptor PYR1: B1 Abscisic acid receptor PYR1 with Q151N, D155F
With B14 the “Mutations” value was “x”.

B15: D155V: PYR1 mutant (protein, UniProt O49686 1-191, looked up, variant D155V)
Abscisic acid receptor PYR1: B1 Abscisic acid receptor PYR1 with Q151N, D155V
B15 was tested, and the “Mutations” value was “x”.

B16: T156Q: PYR1 mutant (protein, UniProt O49686 1-191, looked up, variant T156Q)
Abscisic acid receptor PYR1: B1 Abscisic acid receptor PYR1 with Q151N, T156Q
In the case of B16, the “Mutations” value is reported as “x”.

B17: T156Y: PYR1 mutant (protein, UniProt O49686 1-191, looked up, variant T156Y)
Abscisic acid receptor PYR1: B1 Abscisic acid receptor PYR1 with Q151N, T156Y
With B17 the “Mutations” value was “x”.

B18: M158P: PYR1 mutant (protein, UniProt O49686 1-191, looked up, variant M158P)
Abscisic acid receptor PYR1: B1 Abscisic acid receptor PYR1 with Q151N, M158P
For B18, the “Mutations” value was “x”.

B19: N151Y: PYR1 mutant (protein, UniProt O49686 1-191, looked up, variant N151Y)
Abscisic acid receptor PYR1: B1 Abscisic acid receptor PYR1 with Q151Y
With B19 the “Mutations” value was “x”.

B20: N151F: PYR1 mutant (protein, UniProt O49686 1-191, looked up, variant N151F)
Abscisic acid receptor PYR1: B1 Abscisic acid receptor PYR1 with Q151F
B20 was tested, and the “Mutations” value was “x”.

B21: T156L: PYR1 mutant (protein, UniProt O49686 1-191, looked up, variant T156L)
Abscisic acid receptor PYR1: B1 Abscisic acid receptor PYR1 with Q151N, T156L
For B21, the “Mutations” value was “x”.

B22: N151R: PYR1 mutant (protein, UniProt O49686 1-191, looked up, variant N151R)
Abscisic acid receptor PYR1: B1 Abscisic acid receptor PYR1 with Q151R
B22 was tested, and the “Mutations” value was “x”.

B23: T156E: PYR1 mutant (protein, UniProt O49686 1-191, looked up, variant T156E)
Abscisic acid receptor PYR1: B1 Abscisic acid receptor PYR1 with Q151N, T156E
With B23 the “Mutations” value was “x”.

B24: D155I: PYR1 mutant (protein, UniProt O49686 1-191, looked up, variant D155I)
Abscisic acid receptor PYR1: B1 Abscisic acid receptor PYR1 with Q151N, D155I
For B24, the “Mutations” value was “x”.

B25: T156G: PYR1 mutant (protein, UniProt O49686 1-191, looked up, variant T156G)
Abscisic acid receptor PYR1: B1 Abscisic acid receptor PYR1 with Q151N, T156G
With B25 the “Mutations” value was “x”.

B26: T156M: PYR1 mutant (protein, UniProt O49686 1-191, looked up, variant T156M)
Abscisic acid receptor PYR1: B1 Abscisic acid receptor PYR1 with Q151N, T156M
With B26 the “Mutations” value was “x”.

B27: D155L: PYR1 mutant (protein, UniProt O49686 1-191, looked up, variant D155L)
Abscisic acid receptor PYR1: B1 Abscisic acid receptor PYR1 with Q151N, D155L
In the case of B27, the “Mutations” value is reported as “x”.

B28: D155K: PYR1 mutant (protein, UniProt O49686 1-191, looked up, variant D155K)
Abscisic acid receptor PYR1: B1 Abscisic acid receptor PYR1 with Q151N, D155K
With B28 the “Mutations” value was “x”.

B29: N151C: PYR1 mutant (protein, UniProt O49686 1-191, looked up, variant N151C)
Abscisic acid receptor PYR1: B1 Abscisic acid receptor PYR1 with Q151C
In the case of B29, the “Mutations” value is reported as “x”.

B30: N151G: PYR1 mutant (protein, UniProt O49686 1-191, looked up, variant N151G)
Abscisic acid receptor PYR1: B1 Abscisic acid receptor PYR1 with Q151G
B30 was tested, and the “Mutations” value was “x”.

B31: T156F: PYR1 mutant (protein, UniProt O49686 1-191, looked up, variant T156F)
Abscisic acid receptor PYR1: B1 Abscisic acid receptor PYR1 with Q151N, T156F
With B31 the “Mutations” value was “x”.

B32: T156K: PYR1 mutant (protein, UniProt O49686 1-191, looked up, variant T156K)
Abscisic acid receptor PYR1: B1 Abscisic acid receptor PYR1 with Q151N, T156K
With B32 the “Mutations” value was “x”.

B33: T156I: PYR1 mutant (protein, UniProt O49686 1-191, looked up, variant T156I)
Abscisic acid receptor PYR1: B1 Abscisic acid receptor PYR1 with Q151N, T156I
With B33 the “Mutations” value was “x”.

B34: T156H: PYR1 mutant (protein, UniProt O49686 1-191, looked up, variant T156H)
Abscisic acid receptor PYR1: B1 Abscisic acid receptor PYR1 with Q151N, T156H
For B34, the “Mutations” value was “x”.

B35: D155R: PYR1 mutant (protein, UniProt O49686 1-191, looked up, variant D155R)
Abscisic acid receptor PYR1: B1 Abscisic acid receptor PYR1 with Q151N, D155R
B35 was tested, and the “Mutations” value was “x”.

B36: N151H: PYR1 mutant (protein, UniProt O49686 1-191, looked up, variant N151H)
Abscisic acid receptor PYR1: B1 Abscisic acid receptor PYR1 with Q151H
For B36, the “Mutations” value was “x”.

B37: D155P: PYR1 mutant (protein, UniProt O49686 1-191, looked up, variant D155P)
Abscisic acid receptor PYR1: B1 Abscisic acid receptor PYR1 with Q151N, D155P
For B37, the “Mutations” value was “x”.

B38: T156P: PYR1 mutant (protein, listed as Arabidopsis thaliana)
chain: B1 Abscisic acid receptor PYR1 with Q151N, T156P
For B38, the “Mutations” value was “x”.

B39: N151D: PYR1 mutant (protein, UniProt O49686 1-191, looked up, variant N151D)
Abscisic acid receptor PYR1: B1 Abscisic acid receptor PYR1 with Q151D
In the case of B39, the “Mutations” value is reported as “x”.

B40: N151W: PYR1 mutant (protein, UniProt O49686 1-191, looked up, variant N151W)
Abscisic acid receptor PYR1: B1 Abscisic acid receptor PYR1 with Q151W
In the case of B40, the “Mutations” value is reported as “x”.

B41: N151K: PYR1 mutant (protein, UniProt O49686 1-191, looked up, variant N151K)
Abscisic acid receptor PYR1: B1 Abscisic acid receptor PYR1 with Q151K
For B41, the “Mutations” value was “x”.

B42: N151I: PYR1 mutant (protein, UniProt O49686 1-191, looked up, variant N151I)
Abscisic acid receptor PYR1: B1 Abscisic acid receptor PYR1 with Q151I
With B42 the “Mutations” value was “x”.
